Where a chain is given by its changes, count along the chain named. Numbers in names are those of the source.
T1: GST-hBin2-CT (C-terminal region of human Bin2, amino acids 237-565) (Homo sapiens (Human), UniProt Q9UBW5)
T1 chain: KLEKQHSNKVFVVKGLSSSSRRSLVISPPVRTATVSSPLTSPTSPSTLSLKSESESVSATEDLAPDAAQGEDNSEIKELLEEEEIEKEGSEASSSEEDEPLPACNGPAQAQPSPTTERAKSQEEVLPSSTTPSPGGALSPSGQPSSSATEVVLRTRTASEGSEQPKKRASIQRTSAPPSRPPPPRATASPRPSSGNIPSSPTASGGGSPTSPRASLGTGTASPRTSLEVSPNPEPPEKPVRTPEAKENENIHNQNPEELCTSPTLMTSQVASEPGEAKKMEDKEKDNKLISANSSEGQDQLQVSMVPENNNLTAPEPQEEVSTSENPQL

B1: Human α-PIX SH3 domain (amino acids 160-222) (domain or fragment, UniProt Q15052 160-222, looked up)
chain: SHQLIVKARFNFKQTNEDELSVCKGDIIYVTRVEEGGWWEGTLNGRTGWFPSNYVREIKSSER
notes: α-PIX, human, SH3 domain, residues 160-222; Cloned into pGEX-4T-2
B2: Rat Bin2 N-BAR domain (1-238), wild type (domain or fragment, UniProt Q68FR2 1-238, looked up)
chain: MAEGKAGGAAGLFAKQMQKKFSRAQEKVLQKLGKTVETKDERFEQSASNFYQQQAEGHRLYKDLKNFLSAVKVMRESSKRVSETLQEIYNSDWDGHEDLKAIVGNNDLLWEDYEEKLADQALRTMENYVSQFSEVKERIAKRGRKLVDYDSARHHLEAVQNAKKKDEAKMAKAEEDFSKAQVVFEDLNQELLEELPVLYNSRIGCYVTVFQNISNLRDVFYREMSKLNHSLYEVMSKL
notes: Bridging integrator-2 (Bin2), rat, residues 1-238; also called WT rBin2 N-BAR
B3: Rat Bin2 N-BAR V81R,S214E mutant (domain or fragment, UniProt Q68FR2 1-238, looked up)
chain: B2 chain with V81R, S214E
notes: also called rBin2 N-BAR V81R,S214E; dimerization mutant
B4: Human Bin2 BAR domain (residues 20-238; Bin2 N-BAR Δ19) (domain or fragment, UniProt Q9UBW5 20-238, looked up)
chain: KFSRAQEKVLQKLGKAVETKDERFEQSASNFYQQQAEGHKLYKDLKNFLSAVKVMHESSKRVSETLQEIYSSEWDGHEELKAIVWNNDLLWEDYEEKLADQAVRTMEIYVAQFSEIKERIAKRGRKLVDYDSARHHLEAVQNAKKKDEAKTAKAEEEFNKAQTVFEDLNQELLEELPILYNSRIGCYVTIFQNISNLRDVFYREMSKLNHNLYEVMSKL
notes: Bridging integrator-2 (Bin2, BRAP1), human, residues 20-238; human Bin2 has 565 amino acids; the final model holds residues 37-238; Cloned into BamH1/Xho1 sites of pGEX-4T-2; also called hBin2 BAR; Bin2-NTΔ19; source: E. coli DH5α, purified (glutathione sepharose, thrombin cleavage, HiTrap Q, gel filtration)
B5: Human Bin2 N-BAR domain (1-238) (domain or fragment, UniProt Q9UBW5 1-238, looked up)
chain: MAEGKAGGAAGLFAKQVQKKFSRAQEKVLQKLGKAVETKDERFEQSASNFYQQQAEGHKLYKDLKNFLSAVKVMHESSKRVSETLQEIYSSEWDGHEELKAIVWNNDLLWEDYEEKLADQAVRTMEIYVAQFSEIKERIAKRGRKLVDYDSARHHLEAVQNAKKKDEAKTAKAEEEFNKAQTVFEDLNQELLEELPILYNSRIGCYVTIFQNISNLRDVFYREMSKLNHNLYEVMSKL
notes: Bridging integrator-2 (Bin2, BRAP1), human, residues 1-238; also called hBin2 N-BAR; source: E. coli DH5α, purified (glutathione sepharose, thrombin cleavage, HiTrap Q, gel filtration)
B6: GST-hBin2-CT (C-terminal region of human Bin2, amino acids 237-565) (domain or fragment, UniProt Q9UBW5 237-565, looked up)
chain: T1 chain
notes: Cloned into Nde1/Not1 sites of pGEX-4T-2; also called GST-Bin2-CT; BCT; source: E. coli DH5α, purified (glutathione sepharose, eluted with glutathione, dialysed)

Columns and labels:
[1] = molecular target: T1, GST-hBin2-CT (C-terminal region of …); assay: GST pull-down, Coomassie
[2] = molecular target: B6; assay: pull-down; 10 µg GST fusion or GST on glutathione beads with rising amounts of purified prey, 60 min; 20 mM HEPES pH 7.5, 150 mM NaCl, 1 mM DTT, 0.1% Triton X-100; SDS-PAGE, Coomassie; settings: both partners purified
[3] = molecular target: the molecule itself; assay: SEC; gel filtration profiles of WT rBin2 N-BAR against the V81R,S214E mutant, with molecular weight standards
[4] = molecular target: the molecule itself; assay: crystal structure; hanging-drop crystals in 10% MPD, 7% PEG4000, 0.1 M sodium citrate pH 5.3, 20°C; MIRAS phasing; two molecules in the asymmetric unit
[5] = molecular target: the molecule itself; assay: AUC; equilibrium sedimentation, 20°C, 20,000, 30,000 and 40,000 rpm; 20 mM Tris, 200 mM NaCl, 0.1 mM DTT; dimer to monomers
[6] = molecular target: T2, Full-length rat Endophilin A1 (rat, UniProt O35179 1-352); assay: pull-down; 10 µg GST fusion or GST on glutathione beads with rising amounts of purified prey, 60 min; 20 mM HEPES pH 7.5, 150 mM NaCl, 1 mM DTT, 0.1% Triton X-100; SDS-PAGE, Coomassie; settings: both partners purified
T2 construct: Endophilin A1, rat, full length; Cloned into pGEX-6P-2; also called rEndoA1; EndoA1
T2 sequence (O35179 whole entry, the tested form may be a part): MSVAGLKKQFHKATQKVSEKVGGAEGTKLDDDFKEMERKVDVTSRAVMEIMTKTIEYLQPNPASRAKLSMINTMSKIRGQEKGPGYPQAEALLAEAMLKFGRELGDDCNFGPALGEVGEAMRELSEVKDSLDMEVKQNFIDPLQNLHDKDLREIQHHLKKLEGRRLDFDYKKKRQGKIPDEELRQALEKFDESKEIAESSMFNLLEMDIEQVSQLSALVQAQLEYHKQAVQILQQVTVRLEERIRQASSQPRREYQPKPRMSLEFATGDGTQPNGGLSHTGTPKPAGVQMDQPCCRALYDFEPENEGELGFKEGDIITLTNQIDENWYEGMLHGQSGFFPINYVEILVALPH

Binder: B1
binding result [1]: binds
binding result [2]: binds

Binder: B2
binding result [3]: binds

Binder: B3
binding result [3]: binds

Binder: B4
binding result [4]: binds

Binder: B5
Kd [5]: 7 µM

Binder: B6
binding result [6]: binds
